In patent publication US20250179192A1:

Molecular target: KDR1-3 domains (UniProt P35968)
Assay: Octet BLI, KDR1-3 domains on biosensor, scFv in solution

Chain of KDR1-3 domains (P35968 20-327 limits assumed): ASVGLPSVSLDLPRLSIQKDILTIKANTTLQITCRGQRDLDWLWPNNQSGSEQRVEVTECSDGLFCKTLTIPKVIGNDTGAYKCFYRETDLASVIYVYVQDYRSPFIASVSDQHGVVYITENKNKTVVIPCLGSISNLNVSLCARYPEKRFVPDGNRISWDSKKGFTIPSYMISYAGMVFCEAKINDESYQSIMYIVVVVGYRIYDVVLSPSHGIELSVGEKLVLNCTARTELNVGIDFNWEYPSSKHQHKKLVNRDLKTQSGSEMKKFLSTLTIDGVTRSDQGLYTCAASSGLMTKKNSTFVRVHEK

B1: 6A6 (scFv form, off-rate screening) (scFv, from another filing, V domains shown)
VH: QMQLVQSGAEVKKPGASVKLSCKASGYTFSSYWMHWVRQAPGQRLEWMGEINPGNGHTNYNEKFKSRVTITVDKSASTAYMELSSLRSEDTAVYYCAKIWGPSLTSPFDYWGQGTLVTVSS
VL: SNFMLTQPPSVSVSPGKTARITCRGDNLGDVNVHWYQQRPGQAPVLVMYYDADRPSGIPERFSGSNSGNTATLTISGVEAGDEADYYCQVWDRTSEYVFGTGTKVTVLG
  koff: 0.000266 s⁻¹
